In PMC3515540, “Identification of Regions Involved in Substrate Binding and Dimer Stabilization within the Central Domains of Yeast Hsp40 Sis1” (PLoS ONE, 2012):

B1: wild-type Sis1 (natural protein, yeast, UniProt P25294 1-352, looked up)
chain: MVKETKLYDLLGVSPSANEQELKKGYRKAALKYHPDKPTGDTEKFKEISEAFEILNDPQKREIYDQYGLEAARSGGPSFGPGGPGGAGGAGGFPGGAGGFSGGHAFSNEDAFNIFSQFFGGSSPFGGADDSGFSFSSYPSGGGAGMGGMPGGMGGMHGGMGGMPGGFRSASSSPTYPEEETVQVNLPVSLEDLFVGKKKSFKIGRKGPHGASEKTQIDIQLKPGWKAGTKITYKNQGDYNPQTGRRKTLQFVIQEKSHPNFKRDGDDLIYTLPLSFKESLLGFSKTIQTIDGRTLPLSRVQPVQPSQTSTYPGQGMPTPKNPSQRGNLIVKYKVDYPISLNDAQKRAIDENF
notes: Sis1, yeast cytosolic Type II DnaJ/Hsp40, full length wild type (residues to 352 by the SYS formula); no tag is stated; also called native Sis1; full length wild-type Sis1; source: E. coli BL21(DE3), purified by two chromatography steps
B2: Sis1_Δ_(124–174) (natural protein, yeast, UniProt P25294 1-352, looked up)
chain: MVKETKLYDLLGVSPSANEQELKKGYRKAALKYHPDKPTGDTEKFKEISEAFEILNDPQKREIYDQYGLEAARSGGPSFGPGGPGGAGGAGGFPGGAGGFSGGHAFSNEDAFNIFSQFFGGSSTYPEEETVQVNLPVSLEDLFVGKKKSFKIGRKGPHGASEKTQIDIQLKPGWKAGTKITYKNQGDYNPQTGRRKTLQFVIQEKSHPNFKRDGDDLIYTLPLSFKESLLGFSKTIQTIDGRTLPLSRVQPVQPSQTSTYPGQGMPTPKNPSQRGNLIVKYKVDYPISLNDAQKRAIDENF
notes: source: E. coli BL21(DE3), purified by two chromatography steps
B3: Hsp70 Ssa1 (natural protein)
chain: not shown
notes: Ssa1, yeast cytosolic Hsp70; also called yeast Hsp70; source: E. coli BL21(DE3), purified by two chromatography steps (said of all recombinant proteins, 'unless otherwise noted')
B4: Sis1_Δ_(121–257) (natural protein, yeast, UniProt P25294 1-352, looked up)
chain: MVKETKLYDLLGVSPSANEQELKKGYRKAALKYHPDKPTGDTEKFKEISEAFEILNDPQKREIYDQYGLEAARSGGPSFGPGGPGGAGGAGGFPGGAGGFSGGHAFSNEDAFNIFSQFFGHPNFKRDGDDLIYTLPLSFKESLLGFSKTIQTIDGRTLPLSRVQPVQPSQTSTYPGQGMPTPKNPSQRGNLIVKYKVDYPISLNDAQKRAIDENF
notes: as for B2
B5: SYS (Sis1_(1–121)-Ydj1_(101–255)-Sis1_(258–352)) (other, yeast, UniProt P25294 1-121, looked up)
chain: MVKETKLYDLLGVSPSANEQELKKGYRKAALKYHPDKPTGDTEKFKEISEAFEILNDPQKREIYDQYGLEAARSGGPSFGPGGPGGAGGAGGFPGGAGGFSGGHAFSNEDAFNIFSQFFGGAGGAQRPRGPQRGKDIKHEISASLEELYKGRTAKLALNKQILCKECEGRGGKKGAVKKCTSCNGQGIKFVTRQMGPMIQRFQTECDVCHGTGDIIDPKDRCKSCNGKKVENERKILEVHVEPGMKDGQRIVFKGEADQAPDVIPGDVVFIVSERPHPNFKRDGDDLIYTLPLSFKESLLGFSKTIQTIDGRTLPLSRVQPVQPSQTSTYPGQGMPTPKNPSQRGNLIVKYKVDYPISLNDAQKRAIDENF
notes: Ydj1, yeast, residues 101–255 (central region); Sis1, yeast, residues 258–352 (CTDII and dimerization region); also called chimera SYS; SYS chimera; source: E. coli BL21(DE3), purified by two chromatography steps

Legend:
Hsp70 Ssa1 = target: B3; experiment: ELISA; Sis1, variants or Ydj1 (100 µL at 200 nM) coated on the microplate; Ssa1 (100 nM) in 50 mM phosphate pH 7.4, 150 mM NaCl, 5 mM Mg-ATP, 1 h, 25°C; bound Ssa1 detected with α-Ssa1; Sis1 set as 100%; settings: both partners purified
[1] = target: the molecule itself; experiment: SEC-MALLS; Superdex 200 10/300 GL, buffer A (25 mM Tris-HCl pH 7.5, 500 mM NaCl); 25 µM protein without urea, 50–75 µM with urea up to 1 M
[2] = target: B5; experiment: ELISA; Sis1, variants or Ydj1 (100 µL at 200 nM) coated on the microplate; Ssa1 (100 nM) in 50 mM phosphate pH 7.4, 150 mM NaCl, 5 mM Mg-ATP, 1 h, 25°C; bound Ssa1 detected with α-Ssa1; Sis1 set as 100%; settings: both partners purified
Sis1_Δ_(121–257) = target: B4; experiment: as above; settings: both partners purified
full-length Ydj1 = target: T1, full-length Ydj1 (yeast, UniProt P25491 1-409); experiment: as above; settings: both partners purified
T1 construct: Ydj1, yeast cytosolic Type I DnaJ/Hsp40, full length; also called wild-type Ydj1; source: E. coli BL21(DE3), purified by two chromatography steps
T1 sequence (looked up): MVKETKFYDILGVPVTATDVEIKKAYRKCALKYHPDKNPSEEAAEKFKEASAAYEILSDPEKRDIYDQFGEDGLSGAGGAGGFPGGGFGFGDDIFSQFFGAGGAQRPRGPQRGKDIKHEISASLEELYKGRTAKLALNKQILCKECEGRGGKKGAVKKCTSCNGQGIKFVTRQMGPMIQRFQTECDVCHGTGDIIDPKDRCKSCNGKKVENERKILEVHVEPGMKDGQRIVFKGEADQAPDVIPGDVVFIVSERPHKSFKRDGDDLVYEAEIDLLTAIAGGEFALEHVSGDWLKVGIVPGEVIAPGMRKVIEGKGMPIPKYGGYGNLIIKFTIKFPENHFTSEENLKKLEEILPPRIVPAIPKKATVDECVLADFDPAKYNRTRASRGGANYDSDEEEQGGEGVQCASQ

Chain of Hsp70 Ssa1 (P10591 whole entry): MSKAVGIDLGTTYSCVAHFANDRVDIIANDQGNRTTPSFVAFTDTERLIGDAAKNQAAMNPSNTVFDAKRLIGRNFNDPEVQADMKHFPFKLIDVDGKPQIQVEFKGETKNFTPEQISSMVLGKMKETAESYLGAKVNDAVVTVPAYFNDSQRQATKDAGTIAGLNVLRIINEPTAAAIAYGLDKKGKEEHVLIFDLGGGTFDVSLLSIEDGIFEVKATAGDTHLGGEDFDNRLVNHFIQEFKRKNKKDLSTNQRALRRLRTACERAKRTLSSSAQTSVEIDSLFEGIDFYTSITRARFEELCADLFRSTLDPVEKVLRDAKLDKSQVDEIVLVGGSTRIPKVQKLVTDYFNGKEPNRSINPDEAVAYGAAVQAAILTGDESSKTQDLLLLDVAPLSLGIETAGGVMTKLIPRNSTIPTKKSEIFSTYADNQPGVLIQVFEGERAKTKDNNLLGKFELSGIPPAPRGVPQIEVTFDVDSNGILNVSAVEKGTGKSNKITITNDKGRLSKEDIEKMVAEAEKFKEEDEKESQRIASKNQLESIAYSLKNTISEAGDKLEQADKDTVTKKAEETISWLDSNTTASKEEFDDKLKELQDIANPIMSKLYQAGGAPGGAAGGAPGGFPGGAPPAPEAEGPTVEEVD

Row | Binder | binding result (Hsp70 Ssa1) | stoichiometry N [1] | percent of the binding ability of Sis1 [2] | percent of the binding ability of Sis1 (Sis1_Δ_(121–257)) | percent of the binding ability of Sis1 (full-length Ydj1)
1 | B1 | binds | 2 | – | – | –
2 | B2 | binds | 2 | – | – | –
3 | B3 | – | – | ~50% | ~50% | ~30%
4 | B4 | – | 2 | – | – | –
5 | B5 | – | 2 | – | – | –
